According to patent US20210030885A1, “HUMANIZED ANTI-LIV1 ANTIBODIES FOR THE TREATMENT OF CANCER” (priority 2019, published 2021):
Marks after values point to notes of the source that are not given here.

Legend:
[1] = Chemical and physical stability of the reconstituted drug product; type: physicochemical; details: at 2-8° C. and at room temperature
Method: When reconstituted with 8.8 mL Water for Injection (WFI), US Pharmacopeia (USP), the concentration of reconstituted LV product is 5 mg/mL. The reconstituted drug product is a clear to slightly opalescent, colorless to light yellow solution with no visible particulate matter. The pH is approximately 6.0. The reconstituted solution is subsequently diluted in sterile 0.9% Sodium Chloride for Injection, USP, for IV administration.
If not used immediately, the in-use storage should not be longer than 24 hours under refrigeration at 2-8° C. The prepared dosing solution (reconstituted drug product solution and saline dilution in an IV bag or polypropylene syringe) should be administered within 8 hours after exposing to ambient temperature and light condition.

[2] = Drug to antibody ratio (DAR) of ADC in blood samples after LV administration, Q3W; type: in vivo, human; details: Q3W dosing
Method: In order to investigate pharmacokinetics of ADC species with different DARs under the previous tri-weekly dosing scheme (Q3W) versus a weekly dosing scheme (Q1W), LV was administered to subjects accordingly, and the pharmacokinetics of ADC species with different DARs were simulated.
Breast cancer patients were treated with ladiratuzumab vedotin (LV).
LV was administered by 30 minute intravenous (IV) infusion under a Q3W interval.
Following administration of LV, subject blood samples were collected at pre-dose, end of infusion, 2 hrs, 4 hrs, 8 hrs, 1 day, 3 days, 7 days, and 14 days after administration. The concentrations of the antibody-drug conjugate (ADC) was measured, and the drug to antibody ratio (DAR) of each species (DAR8, DAR7, DAR6, DARS, DAR4, DAR3, DAR2, DAR1 and DAR0) of the ADCs collected in blood samples was also analyzed. […] Using computer-assisted modeling, where decrease in average DAR was established previously, i.e. from 4 (on Day 0) to 1 (on Day 7) under Q3W, the pharmacokinetics were simulated for (i) ADCs with DARs≥4, or (ii) ADCs with DAR of between 2 and 3 (FIGS. 3B, C respectively) when LV was administered at a dose of 1 mg/kg on Day 1 of each 7-day cycle (Q1W) or at a dose of 3 mg/kg on Day 1 of each 21-day cycle (Q3W). […]

[3] = system: patients; test: Adverse event incidence with previous LV dosing regimen 2.5 mg/kg Q3W; type: in vivo, human; details: n = 65
[4] = Observed pharmacokinetics of ADC and MMAE after LV Q1W or Q3W dosing; type: in vivo, human
Method: To investigate if fractionated dosing could increase treatment efficacy or reduce the number and severity of adverse events, various fractionated dosing schemes of ladiratuzumab vedotin (LV) were tested to measure for changes in Cmax, Ctrough, and AUC at similar total dose intensities and exposure.
Breast cancer patients were treated with (LV).
LV was administered as 30-minute IV infusion at the indicated interval. […]

[5] = MMAE, LV 1.0 mg/kg weekly (obs.), n = 4, geometric mean (CV %)
[6] = MMAE, LV 2.5 mg/kg q3wk (obs.), geometric mean (CV %)

## ladiratuzumab vedotin [LV]
[1]
  Chemical and physical stability of the reconstituted drug product demonstrated for: 24 h
[2]; Day 0
  DAR of ADCs in blood: about 4
[2]; Day 7
  DAR of ADCs in blood: about 1
[3]
  Adverse event incidence: Abdominal Pain: 18 (28%)
  Adverse event incidence: Alopecia: 22 (34%)
  Adverse event incidence: Constipation: 32 (49%)
  Adverse event incidence: Decreased Appetite: 29 (45%)
  Adverse event incidence: Diarrhea: 23 (35%)
  Adverse event incidence: Fatigue: 38 (59%)
  Adverse event incidence: Hypokalemia: 17 (26%)
  Adverse event incidence: Nausea: 32 (49%)
  Adverse event incidence: Neutropenia: 19 (29%)
  Adverse event incidence: Peripheral Sensory Neuropathy: 21 (32%)
  Adverse event incidence: Vomiting: 14 (22%)
[4]; ADC, 1.0 mg/kg weekly (obs.), n = 4, estimated from observed AUC0-7 d of Cycle 1 Dose #1 and Dose #3
  AUC0-21: 215.4* μg*day/mL
[4]; ADC, 1.0 mg/kg weekly (obs.), n = 4, geo. mean (CV %)
  Cmax: 31.4 (25) μg/mL
[4]; ADC, 1.25 mg/kg weekly (obs.), n = 1
  Ctrough: 7.64 µg/mL
[4]; ADC, 1.25 mg/kg weekly (obs.), n = 5, estimated from observed AUC0-7 d of Cycle 1 Dose #1 and Dose #3
  AUC0-21: 266.9* μg*day/mL
[4]; ADC, 1.25 mg/kg weekly (obs.), n = 5, geo. mean (CV %)
  Cmax: 43.3 (31) μg/mL
[4]; ADC, 2.5 mg/kg q3wk (obs.), n = 97, geo. mean (CV %)
  AUC0-21: 210 (27) μg*day/mL
[4]; ADC, 2.5 mg/kg q3wk (obs.), n = 131, geo. mean (CV %)
  Cmax: 85 (27) μg/mL
[4]; MMAE, LV 1.0 mg/kg weekly (obs.), n = 4, estimated from observed AUC0-7 d of Cycle 1 Dose #1 and Dose #3
  AUC0-21: 29.7* μg*day/mL
[4]; [5]
  Cmax: 2.1 (61) μg/mL
  Ctrough: 1.26(75) μg/mL
[4]; MMAE, LV 1.25 mg/kg weekly (obs.), n = 2, geometric mean (CV %)
  Ctrough: 2.95(160) μg/mL
[4]; MMAE, LV 1.25 mg/kg weekly (obs.), n = 5, estimated from observed AUC0-7 d of Cycle 1 Dose #1 and Dose #3
  AUC0-21: 53.6* μg*day/mL
[4]; MMAE, LV 1.25 mg/kg weekly (obs.), n = 5, geometric mean (CV %)
  Cmax: 3.74 (68) μg/mL
[4]; [6]
  AUC0-21: 50.3 (61) μg*day/mL
  Cmax: 5.55 (56) μg/mL
  Ctrough: 0.34 (80) μg/mL
